Data reported in the supplement of paper PMC5998384.

Assays:
HeLa Kyoto [1] = test: solubility in G1/S (NP-40 vs SDS abundance) (log2 ratio); higher = more soluble; conditions: cell cycle stage: G1/S
HeLa Kyoto [2] = test: solubility change mitosis vs G1/S (difference of NP-40 vs SDS log2 ratios) (log2 ratio difference); higher = more soluble in mitosis
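For solubility change mitosis vs G1/S (difference of NP-40 vs SDS log2 ratios) in this document: synchronized HeLa Kyoto cells (double thymidine block for G1/S, nocodazole release for mitosis), protein amounts in NP-40 versus SDS lysates quantified by mass spectrometry, three biological replicates.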
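For solubility in G1/S (NP-40 vs SDS abundance) in this document: HeLa Kyoto cells arrested at G1/S by double thymidine block, proteins quantified by TMT10plex mass spectrometry in mild NP-40 versus SDS extracts, three biological replicates.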

Chain of MBD4 (chain, as listed by the source): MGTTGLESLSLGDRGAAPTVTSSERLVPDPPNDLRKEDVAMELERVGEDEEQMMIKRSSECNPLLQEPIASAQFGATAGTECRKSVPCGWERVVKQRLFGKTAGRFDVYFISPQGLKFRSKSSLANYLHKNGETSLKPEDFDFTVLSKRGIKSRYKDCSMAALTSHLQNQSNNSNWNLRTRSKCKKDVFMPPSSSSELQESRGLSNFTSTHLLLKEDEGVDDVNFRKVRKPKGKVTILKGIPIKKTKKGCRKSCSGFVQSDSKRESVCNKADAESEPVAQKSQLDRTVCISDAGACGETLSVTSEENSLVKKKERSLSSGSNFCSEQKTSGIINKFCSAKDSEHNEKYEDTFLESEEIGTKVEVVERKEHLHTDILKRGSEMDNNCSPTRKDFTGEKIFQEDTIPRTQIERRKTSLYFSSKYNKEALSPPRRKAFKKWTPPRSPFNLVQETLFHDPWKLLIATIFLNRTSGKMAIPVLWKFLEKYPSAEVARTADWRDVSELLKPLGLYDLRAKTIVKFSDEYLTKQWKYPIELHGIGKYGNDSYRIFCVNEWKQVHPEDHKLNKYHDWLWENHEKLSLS

MASSGAGDPLDSKRGEAPFAQRIDPTREKLTPEQLHSMRQAELAQWQKVLPRRRTRNIVTGLGIGALVLAIYGYTFYSISQERFLDELEDEAKAARARALARASGS [COA3]
solubility in G1/S (log2) (HeLa Kyoto [1]): -0.65
solubility change mitosis (log2) (HeLa Kyoto [2]): 0.902

MASVLSYESLVHAVAGAVGSVTAMTVFFPLDTARLRLQVDEKRKSKTTHMVLLEIIKEEGLLAPYRGWFPVISSLCCSNFVYFYTFNSLKALWVKGQHSTTGKDLVVGFVAGVVNVLLTTPLWVVNTRLKLQGAKFRNEDIVPTNYKGIIDAFHQIIRDEGISALWNGTFPSLLLVFNPAIQFMFYEGLKRQLLKKRMKLSSLDVFIIGAVAKAIATTVTYPLQTVQSILRFGRHRLNPENRTLGSLRNILYLLHQRVRRFGIMGLYKGLEAKLLQTVLTAALMFLVYEKLTAATFTVMGLKRAHQH [SLC25A17]
solubility in G1/S (log2) (HeLa Kyoto [1]): -0.148
solubility change mitosis (log2) (HeLa Kyoto [2]): -0.0966

MASVRIREAKEGDCGDILRLIRELAEFEKLSDQVKISEEALRADGFGDNPFYHCLVAEILPAPGKLLGPCVVGYGIYYFIYSTWKGRTIYLEDIYVMPEYRGQGIGSKIIKKVAEVALDKGCSQFRLAVLDWNQRAMDLYKALGAQDLTEAEGWHFFCFQGEATRKLAGK [SAT2]
solubility in G1/S (log2) (HeLa Kyoto [1]): 0.139
solubility change mitosis (log2) (HeLa Kyoto [2]): -0.259

MASVSSATFSGHGARSLLQFLRLVGQLKRVPRTGWVYRNVQRPESVSDHMYRMAVMAMVIKDDRLNKDRCVRLALVHDMAECIVGDIAPADNIPKEEKHRREEEAMKQITQLLPEDLRKELYELWEEYETQSSAEAKFVKQLDQCEMILQASEYEDLEHKPGRLQDFYDSTAGKFNHPEIVQLVSELEAERSTNIAAAASEPHS [HDDC2]
solubility in G1/S (log2) (HeLa Kyoto [1]): 0.452
solubility change mitosis (log2) (HeLa Kyoto [2]): 0.118

MATSLDFKTYVDQACRAAEEFVNIYYETMDKRRRALTRLYLDKATLIWNGNAVSGLDALNNFFDTLPSSEFQVNMLDCQPVHEQATQSQTTVLVVTSGTVKFDGNKQHFFNQNFLLTAQSTPNNTVWKIASDCFRFQDWSSS [NXT2]
solubility in G1/S (log2) (HeLa Kyoto [1]): -0.596
solubility change mitosis (log2) (HeLa Kyoto [2]): 0.401

MAVTLSLLLGGRVCAAVTRCGFATRGVAGPGPIGREPDPDSDWEPEERELQEVESTLKRQKQAIRFQKIRRQMEAPGAPPRTLTWEAMEQIRYLHEEFPESWSVPRLAEGFDVSTDVIRRVLKSKFLPTLEQKLKQDQKVLKKAGLAHSLQHLRGSGNTSKLLPAGHSVSGSLLMPGHEASSKDPNHSTALKVIESDTHRTNTPRRRKGRNKEIQDLEESFVPVAAPLGHPRELQKYSSDSESPRGTGSGALPSGQKLEELKAEEPDNFSSKVVQRGREFFDSNGNFLYRI [NGRN]
solubility in G1/S (log2) (HeLa Kyoto [1]): 0.784
solubility change mitosis (log2) (HeLa Kyoto [2]): 0.276

MBD4
solubility in G1/S (log2) (HeLa Kyoto [1]): -0.669
solubility change mitosis (log2) (HeLa Kyoto [2]): 0.427

MCTKMEQPFYHDDSYTATGYGRAPGGLSLHDYKLLKPSLAVNLADPYRSLKAPGARGPGPEGGGGGSYFSGQGSDTGASLKLASSELERLIVPNSNGVITTTPTPPGQYFYPRGGGSGGGAGGAGGGVTEEQEGFADGFVKALDDLHKMNHVTPPNVSLGATGGPPAGPGGVYAGPEPPPVYTNLSSYSPASASSGGAGAAVGTGSSYPTTTISYLPHAPPFAGGHPAQLGLGRGASTFKEEPQTVPEARSRDATPPVSPINMEDQERIKVERKRLRNRLAATKCRKRKLERIARLEDKVKTLKAENAGLSSTAGLLREQVAQLKQKVMTHVSNGCQLLLGVKGHAF [JUNB]
solubility in G1/S (log2) (HeLa Kyoto [1]): 0.0721
solubility change mitosis (log2) (HeLa Kyoto [2]): 0.346

MDEADRRLLRRCRLRLVEELQVDQLWDALLSRELFRPHMIEDIQRAGSGSRRDQARQLIIDLETRGSQALPLFISCLEDTGQDMLASFLRTNRQAAKLSKPTLENLTPVVLRPEIRKPEVLRPETPRPVDIGSGGFGDVGALESLRGNADLAYILSMEPCGHCLIINNVNFCRESGLRTRTGSNIDCEKLRRRFSSLHFMVEVKGDLTAKKMVLALLELAQQDHGALDCCVVVILSHGCQASHLQFPGAVYGTDGCPVSVEKIVNIFNGTSCPSLGGKPKLFFIQACGGEQKDHGFEVASTSPEDESPGSNPEPDATPFQEGLRTFDQLDAISSLPTPSDIFVSYSTFPGFVSWRDPKSGSWYVETLDDIFEQWAHSEDLQSLLLRVANAVSVKGIYKQMPGCFNFLRKKLFFKTS [CASP9]
solubility in G1/S (log2) (HeLa Kyoto [1]): 0.32
solubility change mitosis (log2) (HeLa Kyoto [2]): -0.0656

MDEDGGGEGGGVPEDLSLEEREELLDIRRRKKELIDDIERLKYEIAEVMTEIDNLTSVEESKTTQRNKQIAMGRKKFNMDPKKGIQFLIENDLLQSSPEDVAQFLYKGEGLNKTVIGDYLGERDEFNIKVLQAFVELHEFADLNLVQALRQFLWSFRLPGEAQKIDRMMEAFASRYCLCNPGVFQSTDTCYVLSFAIIMLNTSLHNHNVRDKPTAERFIAMNRGINEGGDLPEELLRNLYESIKNEPFKIPEDDGNDLTHTFFNPDREGWLLKLGGGRVKTWKRRWFILTDNCLYYFEYTTDKEPRGIIPLENLSIREVEDPRKPNCFELYNPSHKGQVIKACKTEADGRVVEGNHVVYRISAPSPEEKEEWMKSIKASISRDPFYDMLATRKRRIANKK [CYTH3]
solubility in G1/S (log2) (HeLa Kyoto [1]): 0.26
solubility change mitosis (log2) (HeLa Kyoto [2]): -0.11

MDEQEALNSIMNDLVALQMNRRHRMPGYETMKNKDTGHSNRQSDVRIKFEHNGERRIIAFSRPVKYEDVEHKVTTVFGQPLDLHYMNNELSILLKNQDDLDKAIDILDRSSSMKSLRILLLSQDRNHNSSSPHSGVSRQVRIKASQSAGDINTIYQPPEPRSRHLSVSSQNPGRSSPPPGYVPERQQHIARQGSYTSINSEGEFIPETSEQCMLDPLSSAENSLSGSCQSLDRSADSPSFRKSRMSRAQSFPDNRQEYSDRETQLYDKGVKGGTYPRRYHVSVHHKDYSDGRRTFPRIRRHQGNLFTLVPSSRSLSTNGENMGLAVQYLDPRGRLRSADSENALSVQERNVPTKSPSAPINWRRGKLLGQGAFGRVYLCYDVDTGRELASKQVQFDPDSPETSKEVSALECEIQLLKNLQHERIVQYYGCLRDRAEKTLTIFMEYMPGGSVKDQLKAYGALTESVTRKYTRQILEGMSYLHSNMIVHRDIKGANILRDSAGNVKLGDFGASKRLQTICMSGTGMRSVTGTPYWMSPEVISGEGYGRKADVWSLGCTVVEMLTEKPPWAEYEAMAAIFKIATQPTNPQLPSHISEHGRDFLRRIFVEARQRPSAEELLTHHFAQLMY [MAP3K3]
solubility in G1/S (log2) (HeLa Kyoto [1]): 0.569
solubility change mitosis (log2) (HeLa Kyoto [2]): -0.169

MDFREILMIASKGQGVNNVPKRYSLAVGPPKKDPKVKGVQSAAVQAFLKRKEEELRRKALEEKRRKEELVKKRIELKHDKKARAMAKRTKDNFHGYNGIPIEEKSKKRQATESHTSQGTDREYEMEEENEFLEYNHAESEQEYEEEQEPPKVESKPKVPLKSAPPPMNFTDLLRLAEKKQFEPVEIKVVKKSEERPMTAEELREREFLERKHRRKKLETDGKLPPTVSKKAPSQKESVGTKLSKGSGDRHPSSKGMPLPHAEKKSRPSMANEKHLALSSSKSMPGERIKAGSGNSSQPSLREGHDKPVFNGAGKPHSSTSSPSVPKTSASRTQKSAVEHKAKKSLSHPSHSRPGPMVTPHNKAKSPGVRQPGSSSSSAPGQPSTGVARPTVSSGPVPRRQNGSSSSGPERSISGSKKPTNDSNPSRRTVSGTCGPGQPASSSGGPGRPISGSVSSARPLGSSRGPGRPVSSPHELRRPVSGLGPPGRSVSGPGRSISGSIPAGRTVSNSVPGRPVSSLGPGQTVSSSGPTIKPKCTVVSETISSKNIISRSSNGQMNGMKPPLSGYRAAQGPQRLPFPTGYKRQREYEEEDDDDDEYDSEMEDFIEDEGEPQEEISKHIREIFGYDRKKYKDESDYALRYMESSWKEQQKEEAKSLRLGMQEDLEEMRREEEEMQRRRAKKLKRR [SPTY2D1]
solubility in G1/S (log2) (HeLa Kyoto [1]): -1.47
solubility change mitosis (log2) (HeLa Kyoto [2]): 0.873

MDFSFSFMQGIMGNTIQQPPQLIDSANIRQEDAFDNNSDIAEDGGQTPYEATLQQGFQYPATTEDLPPLTNGYPSSISVYETQTKYQSYNQYPNGSANGFGAVRNFSPTDYYHSEIPNTRPHEILEKPSPPQPPPPPSVPQTVIPKKTGSPEIKLKITKTIQNGRELFESSLCGDLLNEVQASEHTKSKHESRKEKRKKSNKHDSSRSEERKSHKIPKLEPEEQNRPNERVDTVSEKPREEPVLKEEAPVQPILSSVPTTEVSTGVKFQVGDLVWSKVGTYPWWPCMVSSDPQLEVHTKINTRGAREYHVQFFSNQPERAWVHEKRVREYKGHKQYEELLAEATKQASNHSEKQKIRKPRPQRERAQWDIGIAHAEKALKMTREERIEQYTFIYIDKQPEEALSQAKKSVASKTEVKKTRRPRSVLNTQPEQTNAGEVASSLSSTEIRRHSQRRHTSAEEEEPPPVKIAWKTAAARKSLPASITMHKGSLDLQKCNMSPVVKIEQVFALQNATGDGKFIDQFVYSTKGIGNKTEISVRGQDRLIISTPNQRNEKPTQSVSSPEATSGSTGSVEKKQQRRSIRTRSESEKSTEVVPKKKIKKEQVETVPQATVKTGLQKGASEISDSCKPLKKRSRASTDVEMTSSAYRDTSDSDSRGLSDLQVGFGKQVDSPSATADADVSDVQSMDSSLSRRGTGMSKKDTVCQICESSGDSLIPCEGECCKHFHLECLGLASLPDSKFICMECKTGQHPCFSCKVSGKDVKRCSVGACGKFYHEACVRKFPTAIFESKGFRCPQHCCSACSMEKDIHKASKGRMMRCLRCPVAYHSGDACIAAGSMLVSSYILICSNHSKRSSNSSAVNVGFCFVCARGLIVQDHSDPMFSSYAYKSHYLLNESNRAELMKLPMIPSSSASKKKCEKGGRLLCCESCPASFHPECLSIEMPEGCWNCNDCKAGKKLHYKQIVWVKLGNYRWWPAEICNPRSVPLNIQGLKHDLGDFPVFFFGSHDYYWVHQGRVFPYVEGDKSFAEGQTSINKTFKKALEEAAKRFQELKAQRESKEALEIEKNSRKPPPYKHIKANKVIGKVQIQVADLSEIPRCNCKPADENPCGLESECLNRMLQYECHPQVCPAGDRCQNQCFTKRLYPDAEIIKTERRGWGLRTKRSIKKGEFVNEYVGELIDEEECRLRIKRAHENSVTNFYMLTVTKDRIIDAGPKGNYSRFMNHSCNPNCETQKWTVNGDVRVGLFALCDIPAGMELTFNYNLDCLGNGRTECHCGADNCSGFLGVRPKSACASTNEEKAKNAKLKQKRRKIKTEPKQMHEDYCFQCGDGGELVMCDKKDCPKAYHLLCLNLTQPPYGKWECPWHQCDECSSAAVSFCEFCPHSFCKDHEKGALVPSALEGRLCCSEHDPMAPVSPEYWSKIKCKWESQDHGEEVKE [WHSC1L1]
solubility in G1/S (log2) (HeLa Kyoto [1]): -0.563
solubility change mitosis (log2) (HeLa Kyoto [2]): 0.362

MDIIETAKLEEHLENQPSDPTNTYARPAEPVEEENKNGNGKPKSLSSGLRKGTKKYPDYIQIAMPTESRNKFPLEWWKTGIAFIYAVFNLVLTTVMITVVHERVPPKELSPPLPDKFFDYIDRVKWAFSVSEINGIILVGLWITQWLFLRYKSIVGRRFCFIIGTLYLYRCITMYVTTLPVPGMHFQCAPKLNGDSQAKVQRILRLISGGGLSITGSHILCGDFLFSGHTVTLTLTYLFIKEYSPRHFWWYHLICWLLSAAGIICILVAHEHYTIDVIIAYYITTRLFWWYHSMANEKNLKVSSQTNFLSRAWWFPIFYFFEKNVQGSIPCCFSWPLSWPPGCFKSSCKKYSRVQKIGEDNEKST [SGMS2]
solubility in G1/S (log2) (HeLa Kyoto [1]): -0.197
solubility change mitosis (log2) (HeLa Kyoto [2]): -0.0915
